Experimental data published in PMC3667199 (Biochemistry, 2011).

T1: PTP10D (Drosophila melanogaster, UniProt P35992)
T1 sequence (P35992 1226-1533): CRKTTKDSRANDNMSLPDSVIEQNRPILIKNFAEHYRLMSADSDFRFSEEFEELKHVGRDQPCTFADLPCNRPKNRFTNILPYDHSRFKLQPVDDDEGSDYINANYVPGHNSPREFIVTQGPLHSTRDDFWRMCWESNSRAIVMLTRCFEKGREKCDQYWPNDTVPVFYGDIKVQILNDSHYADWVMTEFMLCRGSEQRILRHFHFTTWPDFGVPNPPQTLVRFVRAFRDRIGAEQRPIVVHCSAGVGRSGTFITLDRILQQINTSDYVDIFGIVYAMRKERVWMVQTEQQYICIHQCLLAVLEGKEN

B1: PTP10D (Drosophila melanogaster) (protein)
chain: CRKTTKDSRANDNMSLPDSVIEQNRPILIKNFAEHYRLMSADSDFRFSEEFEELKHVGRDQPCTFADLPCNRPKNRFTNILPYDHSRFKLQPVDDDEGSDYINANYVPGHNSPREFIVTQGPLHSTRDDFWRMCWESNSRAIVMLTRCFEKGREKCDQYWPNDTVPVFYGDIKVQILNDSHYADWVMTEFMLCRGSEQRILRHFHFTTWPDFGVPNPPQTLVRFVRAFRDRIGAEQRPIVVHCSAGVGRSGTFITLDRILQQINTSDYVDIFGIVYAMRKERVWMVQTEQQYICIHQCLLAVLEGKEN

What was measured:
PTP10D = molecular target: T1, PTP10D; test: crystal structure; type: biochemical
purified protein = substrate: O=[N+]([O-])c1ccc(OP(=O)(O)O)cc1; test: purified protein

Molecule | Ki (PTP10D) [nM] | Km (purified protein) [mM] | Vmax (purified protein) [µmol/min/mg] | kcat (purified protein) [s⁻¹] | kcat/Km (purified protein) [M⁻¹ s⁻¹]
[O]=[V]([OH])([OH])[OH] [sodium vanadate] | 1530 ± 140 |  |  |  | 
B1 |  | 5.3128 ± 0.05842 | 13.7 | 8.24 ± 0.89 | 1550 ± 160
